Test results reported in the supplement of paper PMC10201428.
± gives the standard deviation of the averaged measurements.

Tests used:
[1] = test system: VchCAST RNA-guided transposition machinery (E. coli BL21(DE3) host, lacZ target); assay: relative integration efficiency (T-RL orientation) vs wild-type transposon end (log2 (normalized fold change)); transposon end mutated: right end (5 bp flank + 75 bp right end); higher = more efficient transposition
Method in brief: (§1)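 In E. coli BL21(DE3), a T7-driven effector plasmid was paired with a pUC57 mini-transposon donor containing 1549 left-end or 1849 right-end barcoded transposon variants. Cells grew on plates with 0.1 mM IPTG at 37°C for 18 h. Relative integration efficiency was derived from Illumina reads of genomic integration junctions against input plasmids, as a log-transformed output/input barcode fold change normalised to reference barcodes.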

[2] = test system: VchCAST RNA-guided transposition machinery (E. coli BL21(DE3) host, lacZ target); assay: relative integration efficiency (T-LR orientation) vs wild-type transposon end (log2 (normalized fold change)); transposon end mutated: right end (5 bp flank + 75 bp right end); higher = more efficient transposition
Method in brief: as §1

Sequence	relative integration efficiency (log2) [1]	relative integration efficiency (log2) [2]
ACATTTGTTGATACCACCATCAAATGATAATTCCACCCATACATTGATAATTATCACACCCAATTTAACTATAACGCTCTGATCATAGTCAGACCAACATTGCTACGACCCGTATTCGCACCGACAC	-4.883 ± 0.0066	-1.66 ± 0.086
ACATTTGTTGATACCACCATCAAATGATAATTCCACCCCTAAATTGATAATTATCACACCCAATTTAACTATAACGCTCTGATCATAGTCAGACCAACATTGCTACGACCCGTATTCGCACCGACAC	-5.24 ± 0.34	-2.31 ± 0.042
ACATTTGTTGATACCACCATCAAATGATAATTCCACCCCTACATTGATAATTATCACACCCAATTTAACTATAACGCTCTGATCATAGTCAGACCAACATTGCTACGACCCGTATTCGCACCGACAC	-5.99 ± 0.51	-2.15 ± 0.19
ACATTTGTTGATACCACCATCAAATGGTAATTACACCCATAAATTGATAATTATCACACCCAATTTAACTATAACGCTCTGATCATAGTCAGACCAACATTGCTACGACCCGTATTCGCACCGACAC	-2.79 ± 0.21	0.203 ± 0.17
ACATTTGTTGATACCACCATCAAATGGTAATTACACCCATACATTGATAATTATCACACCCAATTTAACTATAACGCTCTGATCATAGTCAGACCAACATTGCTACGACCCGTATTCGCACCGACAC	-5.6 ± 0.15	-2.98 ± 0.51
ACATTTGTTGATACCACCATCAAATGGTAATTACACCCCTAAATTGATAATTATCACACCCAATTTAACTATAACGCTCTGATCATAGTCAGACCAACATTGCTACGACCCGTATTCGCACCGACAC	-6.57 ± 0.25	-3.8 ± 0.81
ACATTTGTTGATACCACCATCAAATGGTAATTACACCCCTACATTGATAATTATCACACCCAATTTAACTATAACGCTCTGATCATAGTCAGACCAACATTGCTACGACCCGTATTCGCACCGACAC	-3.15 ± 0.8	0.00776 ± 0.29
ACATTTGTTGATACCACCATCAAATGGTAATTCCACCCATAAATTGATAATTATCACACCCAATTTAACTATAACGCTCTGATCATAGTCAGACCAACATTGCTACGACCCGTATTCGCACCGACAC	-3.19 ± 0.23	-0.205 ± 0.08
ACATTTGTTGATACCACCATCAAATGGTAATTCCACCCATACATTGATAATTATCACACCCAATTTAACTATAACGCTCTGATCATAGTCAGACCAACATTGCTACGACCCGTATTCGCACCGACAC	-6.61 ± 0.18	-4.54 ± 0.41
ACATTTGTTGATACCACCATCAAATGGTAATTCCACCCCTAAATTGATAATTATCACACCCAATTTAACTATAACGCTCTGATCATAGTCAGACCAACATTGCTACGACCCGTATTCGCACCGACAC	-6.33 ± 0.84	-4 ± 0.18
ACATTTGTTGATACCACCATCAAATGGTAATTCCACCCCTACATTGATAATTATCACACCCAATTTAACTATAACGCTCTGATCATAGTCAGACCAACATTGCTACGACCCGTATTCGCACCGACAC	-6.99 ± 0.2	-3.726 ± 0.034
ACATTTGTTGATACCCAAATAAAATGATAATTACACCCATAAATTGATAATTATCACACCCATAAATTGATATTGCCTCTGATCATAGTCAGACCAACATTGCTACGACCCGTATTCGCACCGACAC	-2.59 ± 0.17	-2.7 ± 0.25
ACATTTGTTGATACCCCCATAAAATGATAATTACACCCATAAATTGATAATTATCACACCCATAAATTGATATTGCCTCTGATCATAGTCAGACCAACATTGCTACGACCCGTATTCGCACCGACAC	-0.828 ± 0.081	-0.879 ± 0.24
ACATTTGTTGATACTACCATAAAATGATAATTACTCCCATAAATTGATAATTATCACTCCCATAAATTGATATTGCCTCTGATCATAGTCAGACCAACATTGCTACGACCCGTATTCGCACCGACAC	-0.805 ± 0.022	-0.0376 ± 0.31
